Patent publication US20230263891A1, “SONOGENETIC STIMULATION OF CELLS EXPRESSING TRPA1” (Salk Institute for Biological Studies, priority 2020, published 2023)
“Also recorded” adds a separate entry of the source.

What was measured:
human-TRPV1 = human-TRPV1 (Homo sapiens, UniProt Q8NER1); format: cell-based; conditions: capsaicin 3 μM
HEK cells = format: cell-based, human; conditions: 0.1% , positive control
Text: FIGS. 6A-6J: Ultrasound stimulation at 2.5 MPa is safe as assessed by intracellular uptake of propidium iodide. FIG. 6A: Image showing bright field (BF) image for GCaMP6f-HEK cells, and the corresponding GFP channel (FIG. 6B) and propidium iodide channel (FIG. 6C) before ultrasound stimulation. Multiple trials with ultrasound stimulation at 2.5 MPa 100 ms had no effect on the intracellular levels of propidium iodide (FIG. 6D) n=3 stims. FIG. 6E: Image showing HEK cells used for the positive control, including GFP channel (FIG. 6F) and propidium iodide channel before treatment (FIG. 6G). […] Time course for the propidium iodide signal for an ultrasound stimulated cell highlighted in FIG. 6A, shown in FIG. 6I, and for a cell treated with […] highlighted in FIG. 6E, shown in FIG. 6J. Scale bar, 20 μm.
To facilitate rapid screening of ultrasound-triggered cellular responses, an optical imaging setup was aligned with a custom designed transducer. In particular, a single-crystal 6.91 MHz lithium niobate transducer (FIG. 1A) that lacks hysteresis and generates minimal heat as it converts electrical input into mechanical energy was designed. Such a transducer reduced ultrasound-triggered temperature changes. […]

[1] = system: Human Embryonic Kidney 293T (HEK) cells; test: Ultrasound-evoked GCaMP6f calcium response of HEK cells transfected with candidate channels (screen and TRPA1 variants); format: cell-based; conditions: for Response to ultrasound stimulation (cells activated, GCaMP6f): transfected GCaMP6f HEK cells, 6.91 MHz, screen at 100 msecs, 1.5 MPa
[2] = system: mouse primary cortical neurons; test: GCaMP6f calcium imaging of primary cortical neurons under ultrasound or AITC; format: cell-based
[3] = Rotarod motor learning task; conditions: cortical expression; 5 days
rat primary neurons = test: Whole-cell patch clamp (voltage and current clamp) of primary neurons under ultrasound; format: cell-based
excitable HEK cells = test: Patch-clamp electrophysiology of excitable HEK cells expressing TRPA1 channel polypeptides under ultrasound; format: cell-based, human
[4] = system: layer V motor cortical neurons; test: c-fos expression in cortical neurons after ultrasound in vivo; parameters: species or system mouse
[5] = hsTRPA1-expressing primary neurons, ultrasound

human-TRPV1, sequence (Q8NER1 whole entry): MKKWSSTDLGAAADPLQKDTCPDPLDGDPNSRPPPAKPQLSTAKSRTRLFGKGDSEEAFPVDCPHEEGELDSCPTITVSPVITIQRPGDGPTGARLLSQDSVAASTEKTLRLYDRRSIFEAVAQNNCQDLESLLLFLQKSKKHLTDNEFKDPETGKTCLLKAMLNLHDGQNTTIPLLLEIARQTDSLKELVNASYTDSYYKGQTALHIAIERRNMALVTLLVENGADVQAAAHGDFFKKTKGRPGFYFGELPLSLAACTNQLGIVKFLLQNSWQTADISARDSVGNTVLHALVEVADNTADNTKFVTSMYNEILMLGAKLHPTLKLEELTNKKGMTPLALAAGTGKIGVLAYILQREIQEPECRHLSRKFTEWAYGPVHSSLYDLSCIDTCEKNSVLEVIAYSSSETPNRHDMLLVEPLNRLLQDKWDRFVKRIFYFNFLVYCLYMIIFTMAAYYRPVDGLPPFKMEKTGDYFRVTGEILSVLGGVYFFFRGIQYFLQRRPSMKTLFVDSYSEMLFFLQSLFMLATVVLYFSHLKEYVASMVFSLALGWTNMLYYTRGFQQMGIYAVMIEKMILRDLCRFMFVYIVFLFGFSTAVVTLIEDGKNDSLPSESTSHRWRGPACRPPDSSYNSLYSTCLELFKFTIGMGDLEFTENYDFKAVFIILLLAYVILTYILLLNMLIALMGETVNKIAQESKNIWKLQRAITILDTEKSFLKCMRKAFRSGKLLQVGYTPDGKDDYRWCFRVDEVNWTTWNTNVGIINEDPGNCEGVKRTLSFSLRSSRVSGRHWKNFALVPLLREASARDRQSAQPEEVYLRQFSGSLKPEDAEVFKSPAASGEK

COc1cc(CNC(=O)CCCC/C=C/C(C)C)ccc1O [capsaicin]
Response of HEK cells expressing human TRPV1 to compound (human-TRPV1): respond

Triton-X
Intracellular propidium iodide (HEK cells): significant increase of intracellular propidium iodide

B1: hsTRPA1: human TRPA1 channel protein Clone 63 (non-mutated/WT), SEQ ID NO: 4; RefSeq XP_016869435.1 (protein, listed as Homo sapiens)
chain: MKRSLRKMWRPGEKKEPQGVVYEDVPDDTEDFKESLKVVFEGSAYGLQNFNKQKKLKRCDDMDTFFLHYAAAEGQIELMEKITRDSSLEVLHEMDDYGNTPLHCAVEKNQIESVKFLLSRGANPNLRNFNMMAPLHIAVQGMNNEVMKVLLEHRTIDVNLEGENGNTAVIIACTTNNSEALQILLKKGAKPCKSNKWGCFPIHQAAFSGSKECMEIILRFGEEHGYSRQLHINFMNNGKATPLHLAVQNGDLEMIKMCLDNGAQIDPVEKGRCTAIHFAATQGATEIVKLMISSYSGSVDIVNTTDGCHETMLHRASLFDHHELADYLISVGADINKIDSEGRSPLILATASASWNIVNLLLSKGAQVDIKDNFGRNFLHLTVQQPYGLKNLRPEFMQMQQIKELVMDEDNDGCTPLHYACRQGGPGSVNNLLGFNVSIHSKSKDKKSPLHFAASYGRINTCQRLLQDISDTRLLNEGDLHGMTPLHLAAKNGHDKVVQLLLKKGALFLSDHNGWTALHHASMGGYTQTMKVILDTNLKCTDRLDEDGNTALHFAAREGHAKAVALLLSHNADIVLNKQQASFLHLALHNKRKEVVLTIIRSKRWDECLKIFSHNSPGNKCPITEMIEYLPECMKVLLDFCMLHSTEDKSCRDYYIEYNFKYLQCPLEFTKKTPTQDVIYEPLTALNAMVQNNRIELLNHPVCKEYLLMKWLAYGFRAHMMNLGSYCLGLIPMTILVVNIKPGMAFNSTGIINETSDHSEILDTTNSYLIKTCMILVFLSSIFGYCKEAGQIFQQKRNYFMDISNVLEWIIYTTGIIFVLPLFVEIPAHLQWQCGAIAVYFYWMNFLLYLQRFENCGIFIVMLEVILKTLLRSTVVFIFLLLAFGLSFYILLNLQDPFSSPLLSIIQTFSMMLGDINYRESFLEPYLRNELAHPVLSFAQLVSFTIFVPIVLMNLLIGLAVGDIAEVQKHASLKRIAMQVELHTSLEKKLPLWFLRKVDQKSTIVYPNKPRSGGMLFHIFCFLFCTGEIRQEIPNADKSLEMEILKQKYRLKDLTFLLEKQHELIKLIIQKMEIISETEDDDSHCSFQDRFKKEQMEQRNSRWNTVLRAVKAKTHHLEP
Responsiveness to ultrasound stimulation among TRPA channels from different species (% of cells showing a response) ([1]; HEK cells, 100 ms ultrasound pulse at 3 MPa 6.91 MHz): the most responsive to ultrasound stimulation
Response to ultrasound stimulation (cells activated, GCaMP6f) [1]: robust responses; also recorded: selectively activated by ultrasound stimulation in a pressure- and duration-dependent manner
Response to ultrasound stimulation (cells activated, GCaMP6f) ([1]; listed as human homolog): the best candidate
Ultrasound-triggered intracellular calcium in expressing neurons versus CRE control ([2]; E18 mouse primary cortical neurons, AAV infected, 100 ms, 2.5 MPa): significant increase in intracellular calcium
Response duration [2, 5]: 2 to 30 s
Response latency after stimulus onset (majority of neurons) [2, 5]: 500 to 900 ms
Repeated ultrasound stimulation: cell health and calcium flux ([2]; repetitive 100 ms, 2.5 MPa ultrasound stimulation): without apparent deleterious effects on cell health or a substantial decrement in calcium flux
Ability to learn the rotarod task versus GFP-expressing animals [3]: comparable ability to learn the rotarod task
Ultrasound-evoked action potentials in assayed neurons (rat primary neurons; current clamp): all assayed hsTRPA1-expressing neurons showed ultrasound-evoked action potentials
Lowest ultrasound pressure triggering action potentials (rat primary neurons; current clamp, 6.91 MHz): 0.2 MPa
Current responses to ultrasound in voltage clamp (rat primary neurons; whole-cell, within a few milliseconds of ultrasound stimulation, 0.25 MPa range): > 400 pA
Electrical properties (I-V curve) versus dTom controls (excitable HEK cells): no significant disruptions in their electrical properties
Basal rate of activity before ultrasound versus dTom controls (excitable HEK cells; cell-attached): higher basal rates of activity
Inward currents in response to ultrasound versus dTom controls (excitable HEK cells; cell-attached): significantly larger and more numerous
Electrophysiological responses to ultrasound versus GFP control (excitable HEK cells; patch clamp assay): Significant electrophysiological responses to ultrasound
c-fos expression in the auditory cortex after ultrasound ([4]; hsTRPA1-expressing mice): not detected
Number of c-fos positive cells in cortical motor neurons after ultrasound ([4]; hsTRPA1-expressing transgenic mice versus GFP): significantly increased the number of c-fos positive cells
